From the supplement of paper PMC11246515
± gives the standard deviation of the averaged measurements.

Assay: total protein half-life in vivo (active degradation + dilution); higher = more stable protein
[1] = E. coli NCM3722 delta-clpP delta-lon delta-hslV, growth: N-lim chemostat, doubling time 6 h
[2] = E. coli NCM3722 delta-clpP, growth: N-lim chemostat, doubling time 6 h
[3] = E. coli NCM3722 delta-lon, growth: N-lim chemostat, doubling time 6 h
[4] = E. coli NCM3722 delta-smpB, growth: N-lim chemostat, doubling time 6 h
[5] = wild type E. coli NCM3722, growth: C-lim chemostat, doubling time 3 h
[6] = wild type E. coli NCM3722, growth: C-lim chemostat, doubling time 6 h
[7] = wild type E. coli NCM3722, growth: C-lim chemostat, doubling time 12 h
[8] = wild type E. coli NCM3722, growth: N-lim chemostat, doubling time 6 h
[9] = wild type E. coli NCM3722, growth: N-lim chemostat, doubling time 12 h
[10] = wild type E. coli NCM3722, growth: P-lim chemostat, doubling time 6 h
[11] = wild type E. coli NCM3722, growth: P-lim chemostat, doubling time 12 h
[12] = E. coli NCM3722 delta-hslV, growth: N-lim chemostat, doubling time 6 h

Row | Sequence | total protein half-life in vivo [1] [h] | total protein half-life in vivo [2] [h] | total protein half-life in vivo [3] [h] | total protein half-life in vivo [4] [h] | total protein half-life in vivo [5] [h] | total protein half-life in vivo [6] [h] | total protein half-life in vivo [7] [h] | total protein half-life in vivo [8] [h] | total protein half-life in vivo [9] [h] | total protein half-life in vivo [10] [h] | total protein half-life in vivo [11] [h] | total protein half-life in vivo [12] [h]
1 | MMIKTRFSRWLTFFTFAAAVALALPAKANTWPLPPAGSRLVGENKFHVVENDGGSLEAIAKKYNVGFLALLQANPGVDPYVPRAGSVLTIPLQTLLPDAPREGIVINIAELRLYYYPPGKNSVTVYPIGIGQLGGDTLTPTMVTTVSDKRANPTWTPTANIRARYKAQGIELPAVVPAGLDNPMGHHAIRLAAYGGVYLLHGTNADFGIGMRVSSGCIRLRDDDIKTLFSQVTPGTKVNIINTPIKVSAEPNGARLVEVHQPLSEKIDDDPQLLPITLNSAMQSFKDAAQTDAEVMQHVMDVRSGMPVDVRRHQVSPQTL | 5.73 | 4.84 | 6.23 ± 1.4 | 5.56 | 1.51 ± 0.55 | 2.85 ± 0.33 | 4.13 ± 0.68 | 6.17 | 10.5 | 5.17 | 3.45 | –
2 | MMINVQTVAVIGSGTMGAGIAEVAASHGHQVLLYDISAEALTRAIDGIHARLNSRVTRGKLTAETCERTLKRLIPVTDIHALAAADLVIEAASERLEVKKALFAQLAEVCPPQTLLTTNTSSISITAIAAEIKNPERVAGLHFFNPAPVMKLVEVVSGLATAAEVVEQLCELTLSWGKQPVRCHSTPGFIVNRVARPYYSEAWRALEEQVAAPEVIDAALRDGAGFPMGPLELTDLIGQDVNFAVTCSVFNAFWQERRFLPSLVQQELVIGGRLGKKSGLGVYDWRAEREAVVGLEAVSDSFSPMKVEKKSDGVTEIDDVLLIETQGETAQALAIRLARPVVVIDKMAGKVVTIAAAAVNPDSATRKAIYYLQQQGKTVLQIADYPGMLIWRTVAMIINEALDALQKGVASEQDIDTAMRLGVNYPYGPLAWGAQLGWQRILRLLENLQHHYGEERYRPCSLLRQRALLESGYES | > 8 | – | – | – | – | – | – | – | – | – | – | –
3 | MMKKFIAPLLALLVSGCQIDPYTHAPTLTSTDWYDVGMEDAISGSAIKDDDAFSDSQADRGLYLKGYAEGQKKTCQTDFTYARGLSGKSFPASCNNVENASQLHEVWQKGADENASTIRLN | 3.02 ± 0.51 | 3.75 ± 0.11 | – | 3.95 ± 0.7 | 1.57 | 5.17 ± 0.12 | 8.56 ± 0.22 | 3.97 | 6.57 ± 0.068 | 4.95 | 10.9 | 4.8
4 | MMKTVNELIKDINSLTSHLHEKDFLLTWEQTPDELKQVLDVAAALKALRAENISTKVFNSGLGISVFRDNSTRTRFSYASALNLLGLAQQDLDEGKSQIAHGETVRETANMISFCADAIGIRDDMYLGAGNAYMREVGAALDDGYKQGVLPQRPALVNLQCDIDHPTQSMADLAWLREHFGSLENLKGKKIAMTWAYSPSYGKPLSVPQGIIGLMTRFGMDVTLAHPEGYDLIPDVVEVAKNNAKASGGSFRQVTSMEEAFKDADIVYPKSWAPYKVMEERTELLRANDHEGLKALEKQCLAQNAQHKDWHCTEEMMELTRDGEALYMHCLPADISGVSCKEGEVTEGVFEKYRIATYKEASWKPYIIAAMILSRKYAKPGALLEQLLKEAQERVK | 4.89 ± 0.5 | 2.63 | 3.03 | 2.82 ± 0.23 | 2.94 ± 0.24 | 4.89 ± 0.37 | 9.18 ± 0.49 | 2.53 | 3.87 ± 0.06 | – | – | 2.5 ± 0.084
5 | MMLSATQPLSEKLPAHGCRHVAIIMDGNGRWAKKQGKIRAFGHKAGAKSVRRAVSFAANNGIEALTLYAFSSENWNRPAQEVSALMELFVWALDSEVKSLHRHNVRLRIIGDTSRFNSRLQERIRKSEALTAGNTGLTLNIAANYGGRWDIVQGVRQLAEKVQQGNLQPDQIDEEMLNQHVCMHELAPVDLVIRTGGEHRISNFLLWQIAYAELYFTDVLWPDFDEQDFEGALNAFANRERRFGGTEPGDETA | 4.31 ± 0.33 | 4.73 ± 0.53 | 3.15 ± 0.76 | 3.01 ± 0.68 | 2.21 ± 0.11 | 3.73 ± 0.41 | 5.97 | 3.18 ± 0.091 | 6.55 | 3.94 ± 0.13 | 5.49 ± 2.1 | 2.9 ± 0.15
6 | MMLSEETSAVRPQKQTRFNGAKLVWMLKGSPLTVTSAVIIVLMLLMMIFSPWLATHDPNAIDLTARLLPPSAAHWFGTDEVGRDLFSRVLVGSQQSILAGLVVVAIAGMIGSLLGCLSGVLGGRADAIIMRIMDIMLSIPSLVLTMALAAALGPSLFNAMLAIAIVRIPFYVRLARGQALVVRQYTYVQAAKTFGASRWHLINWHILRNSLPPLIVQASLDIGSAILMAATLGFIGLGAQQPSAEWGAMVANGRNYVLDQWWYCAFPGAAILLTAVGFNLFGDGIRDLLDPKAGGKQS | – | – | – | 4.22 ± 0.1 | – | – | – | 4.15 | 6.94 | – | – | –
7 | MMNDSFCRIIAGEIQARPEQVDAAVRLLDEGNTVPFIARYRKEITGGLDDTQLRNLETRLSYLRELEERRQAILKSISEQGKLTDDLAKAINATLSKTELEDLYLPYKPKRRTRGQIAIEAGLEPLADLLWSDPSHTPEVAAAQYVYADKGVADTKAALDGARYILMERFAEDAALLAKVRDYLWKNAHLVSTVVSGKEEEGAKFRDYFDHHEPLSTVPSHRALAMFRGRNEGVLQLSLNADPQFDEPPKESYCEQIIMDHLGLRLNNAPADSWRKGVVSWTWRIKVLMHLETELMGTVRERAEDEAINVFARNLHDLLMAAPAGLRATMGLDPGLRTGVKVAVVDATGKLVATDTIYPHTGQAAKAAMTVAALCEKHNVELVAIGNGTASRETERFYLDVQKQFPKVTAQKVIVSEAGASVYSASELAAQEFPDLDVSLRGAVSIARRLQDPLAELVKIDPKSIGVGQYQHDVSQTQLARKLDAVVEDCVNAVGVDLNTASVPLLTRVAGLTRMMAQNIVAWRDENGQFQNRQQLLKVSRLGPKAFEQCAGFLRINHGDNPLDASTVHPEAYPVVERILAATQQALKDLMGNSSELRNLKASDFTDEKFGVPTVTDIIKELEKPGRDPRPEFKTAQFADGVETMNDLQPGMILEGAVTNVTNFGAFVDIGVHQDGLVHISSLSNKFVEDPHTVVKAGDIVKVKVLEVDLQRKRIALTMRLDEQPGETNARRGGGNERPQNNRPAAKPRGREAQPAGNSAMMDALAAAMGKKR | 5.48 ± 0.19 | 4.8 ± 0.3 | 4.124 ± 0.019 | 3.26 ± 0.074 | 2.49 ± 0.14 | 4.69 ± 0.19 | 7.55 ± 0.32 | 3.63 ± 0.087 | 5.457 ± 0.049 | 3.88 ± 0.065 | 6.81 ± 0.56 | 3.58 ± 0.041
8 | MMPEIGNGLLCLALGIALLLSVYPLWGVARGDARMMASSRLFAWLLFMSVAGAFLVLVNAFVVNDFTVTYVASNSNTQLPVWYRVAATWGAHEGSLLLWVLLMSGWTFAVAIFSQRIPLDIVARVLAIMGMVSVGFLLFILFTSNPFSRTLPNFPIEGRDLNPLLQDPGLIFHPPLLYMGYVGFSVAFAFAIASLLSGRLDSTYARFTRPWTLAAWIFLTLGIVLGSAWAYYELGWGGWWFWDPVENASFMPWLVGTALMHSLAVTEQRASFKAWTLLLAISAFSLCLLGTFLVRSGVLVSVHAFASDPARGMFILAFMVLVIGGSLLLFAARGHKVRSRVNNALWSRESLLLANNVLLVAAMLVVLLGTLLPLVHKQLGLGSISIGEPFFNTMFTWLMVPFALLLGVGPLVRWGRDRPRKIRNLLIIAFISTLVLSLLLPWLFESKVVAMTVLGLAMACWIAVLAIAEAALRISRGTKTTFSYWGMVAAHLGLAVTIVGIAFSQNYSVERDVRMKSGDSVDIHEYRFTFRDVKEVTGPNWRGGVATIGVTRDGKPETVLYAEKRYYNTAGSMMTEAAIDGGITRDLYAALGEELENGAWAVRLYYKPFVRWIWAGGLMMALGGLLCLFDPRYRKRVSPQKTAPEAV | – | – | 6.56 | 4.59 | – | > 8 | > 16 | – | – | 6.24 | 9.96 | –
9 | MMRIALFLLTNLAVMVVFGLVLSLTGIQSSSVQGLMIMALLFGFGGSFVSLLMSKWMALRSVGGEVIEQPRNERERWLVNTVATQARQAGIAMPQVAIYHAPDINAFATGARRDASLVAVSTGLLQNMSPDEAEAVIAHEISHIANGDMVTMTLIQGVVNTFVIFISRILAQLAAGFMGGNRDEGEESNGNPLIYFAVATVLELVFGILASIITMWFSRHREFHADAGSAKLVGREKMIAALQRLKTSYEPQEATSMMALCINGKSKSLSELFMTHPPLDKRIEALRTGEYLK | 4.24 ± 0.051 | 5.6 ± 0.59 | 4.77 ± 0.29 | 4.77 ± 0.48 | 2.45 ± 0.076 | 4.83 ± 0.3 | 8.92 ± 1.5 | 5.48 ± 0.92 | 10.5 ± 1.2 | 4.81 ± 0.22 | 7.97 ± 0.28 | 5.25 ± 0.11
10 | MMRKMLLAAALSVTAMTAHADYQCSVTPRDDVIVSPQTVQVKGENGNLVITPDGNVMYNGKQYSLNAAQREQAKDYQAELRSTLPWIDEGAKSRVEKARIALDKIIVQEMGESSKMRSRLTKLDAQLKEQMNRIIETRSDGLTFHYKAIDQVRAEGQQLVNQAMGGILQDSINEMGAKAVLKSGGNPLQNVLGSLGGLQSSIQTEWKKQEKDFQQFGKDVCSRVVTLEDSRKALVGNLK [P0ADS9] | 3.83 ± 0.21 | 5 ± 1 | 6.04 ± 0.83 | 5.818 ± 0.046 | 2.92 ± 0.17 | 5.11 ± 0.8 | 8.05 ± 1.5 | 5.76 ± 0.15 | 10.3 ± 0.12 | 5.0188 ± 0.0027 | 10 ± 0.48 | 5.36 ± 0.32
11 | MMSESNKQQAVNKLTEIVANFTAMISTRMPDDVVDKLKQLKDAETSSMGKIIYHTMFDNMQKAIDLNRPACQDTGEIMFFVKVGSRFPLLGELQSILKQAVEEATVKAPLRHNAVEIFDEVNTGKNTGSGVPWVTWDIIPDNDDAEIEVYMAGGGCTLPGRSKVLMPSEGYEGVVKFVFENISTLAVNACPPVLVGVGIATSVETAAVLSRKAILRPIGSRHPNPKAAELELRLEEGLNRLGIGPQGLTGNSSVMGVHIESAARHPSTIGVAVSTGCWAHRRGTLLVHADLTFENLSHTRSAL | – | 6.19 | 6.4 | – | – | – | – | 6.42 | – | 5.88 | – | 6.18
12 | MMSFQKIYSPTQLANAMKLVRQQNGWTQSELAKKIGIKQATISNFENNPDNTTLTTFFKILQSLELSMTLCDAKNASPESTEQQNLEW | – | – | – | – | – | – | 11.7 | 4.64 | – | – | 12 ± 0.84 | –
13 | MMSKINQTDIDRLIELVGGRGNIATVSHCITRLRFVLNQPANARPKEIEQLPMVKGCFTNAGQFQVVIGTNVGDYYQALIASTGQAQVDKEQVKKAARHNMKWHEQLISHFAVIFFPLLPALISGGLILGFRNVIGDLPMSNGQTLAQMYPSLQTIYDFLWLIGEAIFFYLPVGICWSAVKKMGGTPILGIVLGVTLVSPQLMNAYLLGQQLPEVWDFGMFSIAKVGYQAQVIPALLAGLALGVIETRLKRIVPDYLYLVVVPVCSLILAVFLAHALIGPFGRMIGDGVAFAVRHLMTGSFAPIGAALFGFLYAPLVITGVHQTTLAIDLQMIQSMGGTPVWPLIALSNIAQGSAVIGIIISSRKHNEREISVPAAISAWLGVTEPAMYGINLKYRFPMLCAMIGSGLAGLLCGLNGVMANGIGVGGLPGILSIQPSYWQVFALAMAIAIIIPIVLTSFIYQRKYRLGTLDIV | – | – | – | 2.51 | 2.85 ± 0.2 | 4.23 ± 0.33 | 6.59 ± 0.51 | – | – | 4.13 | 6.92 | –
14 | MMTKTQINKLIKMMNDLDYPFEAPLKESFIESIIQIEFNSNSTNCLEKLCNEVSILFKNQPDYLTFLRAMDGFEVNGLRLFSLSIPEPSVKNLFAVNEFYRNNDDFINPDLQERLVIGDYSISIFTYDIKGDAANLLI | 4.14 | – | – | – | – | – | – | – | – | – | – | –
15 | MMVQHLKRRPLSRYLKDFKHSQTHCAHCRKLLDRITLVRDGKIVNKIEISRLDTLLDENGWQTEQKSWAALCRFCGDLHCKTQSDFFDIIGFKQFLFEQTEMSPGTVREYVVRLRRLGNHLHEQNISLDQLQDGFLDEILAPWLPTTSTNNYRIALRKYQHYQRQTCTRLVQKSSSLPSSDIY | 6.005 ± 0.037 | – | – | – | 0.828 ± 0.34 | – | 1.23 | – | – | – | – | –
